Measurements taken from PMC4041747, “Structural and Mutagenic Analysis of the RM Controller Protein C.Esp1396I” (PLoS ONE, 2014).

Tests used:
[1] = test system: C.Esp1396I S52A (Enterobacter sp. RFL1396?); assay: SPR; details: SPR (Biacore T-100): 130 mM NaCl, 10 mM HEPES pH 7.4, 0.05% Tween-20; temperature not stated; 20-1000 nM total protein
[2] = test system: C.Esp1396I Y37F (Enterobacter sp. RFL1396?); assay: SPR; details: SPR (Biacore T-100): 130 mM NaCl, 10 mM HEPES pH 7.4, 0.05% Tween-20; temperature not stated; 20-1000 nM total protein
[3] = test system: C.Esp1396I R46A (Enterobacter sp. RFL1396?); assay: SPR; details: SPR (Biacore T-100): 130 mM NaCl, 10 mM HEPES pH 7.4, 0.05% Tween-20; temperature not stated; 20-1000 nM total protein
[4] = test system: C.Esp1396I Y37A (Enterobacter sp. RFL1396?); assay: SPR; details: SPR (Biacore T-100): 130 mM NaCl, 10 mM HEPES pH 7.4, 0.05% Tween-20; temperature not stated; 20-1000 nM total protein
[5] = test system: C.Esp1396I wild type (Enterobacter sp. RFL1396?); assay: SPR; details: SPR (Biacore T-100): 130 mM NaCl, 10 mM HEPES pH 7.4, 0.05% Tween-20; temperature not stated; 20-1000 nM total protein
[6] = molecular target: the molecule itself; assay: crystal structure; free protein crystals, protein at 2-14 mg/mL, diffraction data at 100 K; dimer of the protein with itself

Molecule | binding result [6] | also measured
OM operator duplex | – | Kd [1]: 2.6 nM; Kd [2]: 1.8 nM; Kd [3]: 15.8 nM; Kd [4]: 5.5 nM; Kd [5]: 0.51 nM
C.Esp1396I wild type (RM controller protein) (natural protein, controller (C) protein C.Esp1396I of the Esp1396I restriction-modification system; Residues may be left at the N-terminus after thrombin cleavage; also called native protein; WT; not shown: His6, N-terminal, cleaved) MESFLLSKVSFVIKKIRLEKGMTQEDLAYKSNLDRTYISGIERNSRNLTIKSLELIMKGLEVSDVVFFEMLIKEILKHD | binds | –
C.Esp1396I Y37F mutant (natural protein, controller (C) protein C.Esp1396I with Y37F; Gene synthesised by GenScript; not shown: His6, N-terminal, cleaved) MESFLLSKVSFVIKKIRLEKGMTQEDLAYKSNLDRTFISGIERNSRNLTIKSLELIMKGLEVSDVVFFEMLIKEILKHD | binds | –
C.Esp1396I S52A mutant (natural protein, controller (C) protein C.Esp1396I with S52A; Gene synthesised by GenScript; not shown: His6, N-terminal, cleaved) MESFLLSKVSFVIKKIRLEKGMTQEDLAYKSNLDRTYISGIERNSRNLTIKALELIMKGLEVSDVVFFEMLIKEILKHD | binds | –
C.Esp1396I T36A mutant (natural protein, controller (C) protein C.Esp1396I with T36A; not shown: His6, N-terminal, cleaved) MESFLLSKVSFVIKKIRLEKGMTQEDLAYKSNLDRAYISGIERNSRNLTIKSLELIMKGLEVSDVVFFEMLIKEILKHD | binds | –
C.Esp1396I Y37A mutant (natural protein, controller (C) protein C.Esp1396I with Y37A; Gene synthesised by GenScript; not shown: His6, N-terminal, cleaved) MESFLLSKVSFVIKKIRLEKGMTQEDLAYKSNLDRTAISGIERNSRNLTIKSLELIMKGLEVSDVVFFEMLIKEILKHD | binds | –
C.Esp1396I R46A mutant (natural protein, controller (C) protein C.Esp1396I with R46A; Crystallised in two space groups (C2 and P3(2)); not shown: His6, N-terminal, cleaved) MESFLLSKVSFVIKKIRLEKGMTQEDLAYKSNLDRTYISGIERNSANLTIKSLELIMKGLEVSDVVFFEMLIKEILKHD | binds | –
